Substitutions are numbered along the chain they refer to.
B1: H183/L072 VL K50S (antibody, name in Kabat numbering, V domains shown)
VH: QVQLVESGGGLVQPGRSLRLSCAASGFTFSNAWMHWVRQAPGKGLEWVAQIKDKGNAYAAYYAPSVKGRFTISRDDSKNSIYLQMNSLKTEDTAVYYCHYVHYASASTVLPAFGVDAWGQGTTVTVSS
VL: DIVMTQSPLSLPVTPGEPASISCQASQELVHMNRNTYLHWYQQKPGQAPRLLIYSVSNRFPGVPDRFSGSGSGTDFTLKISRVEAEDVGVYYCAQGTSVPFTFGQGTKLEIK
notes: Dual-Ig
B2: H183/L072 VL L33Q (antibody, name in Kabat numbering, V domains shown)
VH: B1 VH
VL: B1 VL with L38Q, S55K
notes: Dual-Ig
B3: H183/L072 VL L27bK (antibody, name in Kabat numbering, V domains shown)
VH: B1 VH
VL: B1 VL with L29K, S55K
notes: Dual-Ig
B4: H183/L072 VL L27bP (antibody, name in Kabat numbering, V domains shown)
VH: B1 VH
VL: B1 VL with L29P, S55K
notes: Dual-Ig
B5: H183/L072 VL L27bA (antibody, name in Kabat numbering, V domains shown)
VH: B1 VH
VL: B1 VL with L29A, S55K
notes: Dual-Ig
B6: H183/L072 VL L27bF (antibody, name in Kabat numbering, V domains shown)
VH: B1 VH
VL: B1 VL with L29F, S55K
notes: Dual-Ig
B7: H183/L072 VL L33A (antibody, name in Kabat numbering, V domains shown)
VH: B1 VH
VL: B1 VL with L38A, S55K
notes: Dual-Ig
B8: H183/L072 VL L33G (antibody, name in Kabat numbering, V domains shown)
VH: B1 VH
VL: B1 VL with L38G, S55K
notes: Dual-Ig
B9: H183/L072 VL L27bQ (antibody, name in Kabat numbering, V domains shown)
VH: B1 VH
VL: B1 VL with L29Q, S55K
notes: Dual-Ig
B10: H183/L072 VL L33W (antibody, name in Kabat numbering, V domains shown)
VH: B1 VH
VL: B1 VL with L38W, S55K
notes: Dual-Ig
B11: H183/L072 VL L33I (antibody, name in Kabat numbering, V domains shown)
VH: B1 VH
VL: B1 VL with L38I, S55K
notes: Dual-Ig
B12: H183/L072 VL L27bW (antibody, name in Kabat numbering, V domains shown)
VH: B1 VH
VL: B1 VL with L29W, S55K
notes: Dual-Ig
B13: H183/L072 VL L27bV (antibody, name in Kabat numbering, V domains shown)
VH: B1 VH
VL: B1 VL with L29V, S55K
notes: Dual-Ig
B14: H183/L072 VL L27bH (antibody, name in Kabat numbering, V domains shown)
VH: B1 VH
VL: B1 VL with L29H, S55K
notes: Dual-Ig
B15: H183/L072 VL L27bM (antibody, name in Kabat numbering, V domains shown)
VH: B1 VH
VL: B1 VL with L29M, S55K
notes: Dual-Ig
B16: H183/L072 VL K50T (antibody, name in Kabat numbering, V domains shown)
VH: B1 VH
VL: B1 VL with S55T
notes: Dual-Ig
B17: H183/L072 VL K50W (antibody, name in Kabat numbering, V domains shown)
VH: B1 VH
VL: B1 VL with S55W
notes: Dual-Ig
B18: H183/L072 VL L27bT (antibody, name in Kabat numbering, V domains shown)
VH: B1 VH
VL: B1 VL with L29T, S55K
notes: Dual-Ig
B19: H183/L072 VL K50V (antibody, name in Kabat numbering, V domains shown)
VH: B1 VH
VL: B1 VL with S55V
notes: Dual-Ig
B20: H183/L072 VL L33P (antibody, name in Kabat numbering, V domains shown)
VH: B1 VH
VL: B1 VL with L38P, S55K
notes: Dual-Ig
B21: H183/L072 VL L27bI (antibody, name in Kabat numbering, V domains shown)
VH: B1 VH
VL: B1 VL with L29I, S55K
notes: Dual-Ig
B22: H183/L072 VL L33M (antibody, name in Kabat numbering, V domains shown)
VH: B1 VH
VL: B1 VL with L38M, S55K
notes: Dual-Ig
B23: H183/L072 VL L33N (antibody, name in Kabat numbering, V domains shown)
VH: B1 VH
VL: B1 VL with L38N, S55K
notes: Dual-Ig
B24: H183/L072 VL L33E (antibody, name in Kabat numbering, V domains shown)
VH: B1 VH
VL: B1 VL with L38E, S55K
notes: Dual-Ig
B25: H183/L072 VL L27bS (antibody, name in Kabat numbering, V domains shown)
VH: B1 VH
VL: B1 VL with L29S, S55K
notes: Dual-Ig
B26: H183/L072 VL L33T (antibody, name in Kabat numbering, V domains shown)
VH: B1 VH
VL: B1 VL with L38T, S55K
notes: Dual-Ig
B27: H183/L072 VL L27bG (antibody, name in Kabat numbering, V domains shown)
VH: B1 VH
VL: B1 VL with L29G, S55K
notes: Dual-Ig
B28: H183/L072 VL L33V (antibody, name in Kabat numbering, V domains shown)
VH: B1 VH
VL: B1 VL with L38V, S55K
notes: Dual-Ig
B29: H183/L072 VL L27bE (antibody, name in Kabat numbering, V domains shown)
VH: B1 VH
VL: B1 VL with L29E, S55K
notes: Dual-Ig
B30: H183/L072 VL L27bD (antibody, name in Kabat numbering, V domains shown)
VH: B1 VH
VL: B1 VL with L29D, S55K
notes: Dual-Ig
B31: H183/L072 VL L33F (antibody, name in Kabat numbering, V domains shown)
VH: B1 VH
VL: B1 VL with L38F, S55K
notes: Dual-Ig
B32: H183/L072 VL L33H (antibody, name in Kabat numbering, V domains shown)
VH: B1 VH
VL: B1 VL with L38H, S55K
notes: Dual-Ig
B33: H183/L072 VL L33Y (antibody, name in Kabat numbering, V domains shown)
VH: B1 VH
VL: B1 VL with L38Y, S55K
notes: Dual-Ig

Target: T1, Human CD137 ECD (human)
T1 construct: entry includes C-terminal His-tag and biotin acceptor peptide; also called human CD137 extracellular domain; 4-1BB
T1 sequence (chain, as listed by the source limits assumed): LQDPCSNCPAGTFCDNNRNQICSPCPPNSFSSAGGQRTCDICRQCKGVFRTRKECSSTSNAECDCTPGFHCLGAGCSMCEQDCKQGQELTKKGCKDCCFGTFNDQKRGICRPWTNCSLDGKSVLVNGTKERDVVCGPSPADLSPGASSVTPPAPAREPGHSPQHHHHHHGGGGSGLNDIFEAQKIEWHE
Assay: Biacore SPR, vs parent H183/L072

fold change of affinity [fold]	Binder
0	B1
1.4	B2
0.3	B3
0.8	B4
0.4	B5
0.3	B6
0.9	B7
0.1	B8
0.2	B9
0.1	B10
0.1	B11
0.3	B12
1.1	B13
0.3	B14
0.4	B15
0.2	B16
0	B17

fold change of affinity [fold]	Binder
0.4	B18
0.3	B19
0.2	B20
1.1	B21
0.9	B22
0.1	B23
0.1	B24
0.3	B25
0.2	B26
0.1	B27
0.6	B28
0.2	B29
0.2	B30
0.3	B31
0.9	B32
0.1	B33

Reference: patent US20210388087A1 (Chugai, published 2021)
